The subject of one series is Notch1. Briefly: Notch1 expression in HL-1 atria muscle cells treated with ADM. In kind it is cell-based, mouse. As to conditions: HL-1 cells; ADM 0.25, 0.5, 1.0 μM, 48 hrs.
The test system of the next series is ISL-1. Put plainly: ISL-1 positive cardiac progenitor cells in epicardium and sub-epicardium (staining, qRT-PCR). In kind it is in vivo, rat. As to conditions: protein injection, dose dependent manner, after 14 days treatment. On the procedure: (§1) There were 120 rats divided into three control groups of 30 rats each and a treatment group of 30 rats: (1) normal control rats; (2) ADM injection only; (3) ADM plus UTMD with a DsRed reporter gene (pXL-BASII-CI-DsRed/pCI-hyPB); (4) ADM plus UTMD with ANGPTL8 (pXL-BASII-CI-ANGPTL8/pCI-hyPB). All rats were euthanized at 3 days, 7 days, 14 days, 21 days and 28 days after UTMD. The thymidine analog, 5-bromo-2-deoxyuridine (BrdU) (100 mg/kg) was injected intraperitoneally 6 hours prior to euthanizing.
(§2) 15 rats divided into (1) normal control rats; (2) ADM plus Saline inject rats; (3) ADM plus ANGPTL8 protein at dose of 5 μg/kg/day intramuscular inject for 14 days; (4) ADM plus ANGPTL8 protein at dose of 20 μg/kg/day intramuscular inject for 14 days; (5) ADM plus ANGPTL8 protein at dose of 40 μg/kg/day intramuscular inject for 14 days; All rats were euthanized at 14 days after starting ANGTPL8 protein inject. The thymidine analog, 5-bromo-2-deoxyuridine (BrdU) (100 mg/kg) was injected intraperitoneally 6 hours prior to euthanasia. […]
Total RNA was isolated from 100 mg of pancreas, liver and left quadratic skeletal muscle using the RNeasy mini kit (Qiagen). Real-time quantitative RT-PCR (qRT-PCR) analysis was performed on an ABI 7700 Sequence Detector (Applied Biosystems, Grand Island, N.Y., USA) using SYBR Green (RT2 SYBR Green qPCR Kit; Qiagen, Boston, Mass., USA). […]
(Quantitative PCR measures a nucleic acid by following its amplification.)

A short description of series [1]: ELISA for fasting plasma human ANGPTL8. It is filed as in vivo, rat. As to conditions: protein therapy; intramuscular daily for 14 days, 5, 20, 40 μg/kg/day; day 3, 7, 10 and 14. On the procedure:
as §1
15 rats divided into (1) normal control rats; (2) ADM plus Saline inject rats; (3) ADM plus ANGPTL8 protein at dose of 5 μg/kg/day intramuscular inject for 14 days; (4) ADM plus ANGPTL8 protein at dose of 20 μg/kg/day intramuscular inject for 14 days; (5) ADM plus ANGPTL8 protein at dose of 40 μg/kg/day intramuscular inject for 14 days; All rats were euthanized at 14 days after starting ANGTPL8 protein inject. The thymidine analog, 5-bromo-2-deoxyuridine (BrdU) (100 mg/kg) was injected intraperitoneally 6 hours prior to euthanasia. Human recombinant protein ANGTPL8 protein was purchased from Phoenix Pharmaceuticals (Cat #056-61, Burlingame, Calif., USA).
Fasting venous blood was collected in EDTA tubes from the tail vein, and plasma lipids were measured using standard enzymatic assays. Human ANGTPL8 was measured using ELISA (Phoenix Pharmaceuticals).
On the technique in general: In an ELISA, binding on a coated surface is turned into a signal by an enzyme label.

Series [2] deals with rat hearts with established adriamycin cardiomyopathy. Briefly: Echocardiography of heart structure and function in established adriamycin cardiomyopathy. In kind it is in vivo. As to conditions: protein therapy; 5, 20, 40 μg/kg/day intramuscular for 14 days; ADM cardiomyopathy rats. As to the method: The protocol was planned to test the hypothesis that delivery of ANGPTL8 by UTMD could reverse established adriamycin (ADM) cardiomyopathy defined as a fractional shortening <30% by echocardiography after injection of ADM (Iliskovic, et al., 1997) at total dose of 15 mg/kg/ip, 2.5 mg/kg/ip 6 times over 2 weeks.
as §1, §2

On to `COc1cccc2c1C(=O)c1c(O)c3c(c(O)c1C2=O)C[C@@](O)(C(=O)CO)C[C@@H]3O[C@H]1C[C@H](N)[C@H](O)[C@H](C)O1` [ADM, adriamycin], for which, in the series on Notch1, the Notch1 expression entry is “significantly inhibited”.

B1: ANGPTL8 protein: Human recombinant ANGPTL8 protein purchased from Phoenix Pharmaceuticals (Cat #056-61), injected intramuscularly (protein, UniProt Q6UXH0 22-198, looked up)
Angiopoietin-like protein 8: APMGGPELAQHEELTLLFHGTLQLGQALNGVYRTTEGRLTKARNSLGLYGRTIELLGQEVSRGRDAAQELRASLLETQMEEDILQLQAEATAEVLGEVAQAQKVLRDSVQRLEVQLRSAWLGPAYREFEVLKAHADKQSHILWALTGHVQRQRREMVAQQHRLRQIQERLHTAALPA
In the case of B1, the “ISL-1 positive cells in epicardial layer” value in the series with ISL-1 was “activated”. Further, in series [1], the “human ANGPTL8 in fasting plasma” value is listed as “detected”. Further, in series [2], the LV fractional shortening entry was “some degree of restoration” and the LV mass entry is “some degree of restoration”.

The values are drawn from patent US20190177391A1, “ANGIOPOIETIN-LIKE PROTEIN 8 (ANGPTL8)” (BAYLOR RESEARCH INSTITUTE, priority 2016, published 2019).
